According to publication PMC12136795, “RNA modifications and Prp24 coordinate Lsm2–8 binding dynamics during S. cerevisiae U6 snRNP assembly”:

How the values were obtained:
Lsm2-8 heteroheptamer WT [1] = target: T1, Lsm2-8 heteroheptamer WT (Saccharomyces cerevisiae, UniProt P38203;P57743;P40070;P40089;Q06406;P53905;P47093 …); experiment: fluorescence polarization; Hill 1.11; FP: 2x RNA stock 2 nM mixed 1:1 with protein, 100 mM NaCl, 20 mM Bis-Tris pH 7.0, 10 mM HCl, 1 mM TCEP, 5% glycerol, yeast tRNA, BSA. EMSA: 100 mM KCl, 20% sucrose, 20 mM Hepes pH 7, 1 mM EDTA, 1 mM TCEP, 0.01% Triton X-100 (RNA buffer), yeast tRNA, heparin, BSA, 30 min room temperature, 6% native PAGE at 4 C. CoSMoS buffer not in material.; conditions: protein: recombinant; tags: His-tag removed with TEV; copies: 1;1;1;1;1;1;1; label: fluorophore
T1 sequence 1: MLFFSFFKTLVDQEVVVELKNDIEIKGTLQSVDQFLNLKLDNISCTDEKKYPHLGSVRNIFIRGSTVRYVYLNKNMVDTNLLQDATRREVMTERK
T1 sequence 2: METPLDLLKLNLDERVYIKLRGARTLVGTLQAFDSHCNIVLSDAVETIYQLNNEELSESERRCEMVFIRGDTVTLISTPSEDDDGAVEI
T1 sequence 3: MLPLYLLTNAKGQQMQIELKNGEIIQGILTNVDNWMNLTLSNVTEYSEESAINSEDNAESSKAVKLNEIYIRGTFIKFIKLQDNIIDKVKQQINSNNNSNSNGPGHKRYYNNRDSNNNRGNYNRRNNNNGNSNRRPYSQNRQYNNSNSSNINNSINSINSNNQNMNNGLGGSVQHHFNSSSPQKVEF
T1 sequence 4: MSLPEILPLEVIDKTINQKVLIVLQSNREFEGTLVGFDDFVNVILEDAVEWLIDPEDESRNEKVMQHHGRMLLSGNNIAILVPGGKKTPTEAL
T1 sequence 5: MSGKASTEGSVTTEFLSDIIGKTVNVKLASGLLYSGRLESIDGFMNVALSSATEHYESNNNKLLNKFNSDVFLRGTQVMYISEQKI
T1 sequence 6: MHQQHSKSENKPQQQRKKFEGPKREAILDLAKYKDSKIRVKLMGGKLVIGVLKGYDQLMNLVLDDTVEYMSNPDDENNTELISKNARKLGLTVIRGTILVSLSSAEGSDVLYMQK
T1 sequence 7: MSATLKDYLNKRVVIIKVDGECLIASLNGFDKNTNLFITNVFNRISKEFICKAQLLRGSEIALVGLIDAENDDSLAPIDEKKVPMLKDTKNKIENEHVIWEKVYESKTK

Lsm2-8fSNAP (unlabeled) [2] = target: T2, Lsm2-8fSNAP (unlabeled) (Saccharomyces cerevisiae, UniProt P38203;P57743;P40070;P40089;Q06406;P53905;P47093 …); experiment: fluorescence polarization; Hill 0.88; FP: 2x RNA stock 2 nM mixed 1:1 with protein, 100 mM NaCl, 20 mM Bis-Tris pH 7.0, 10 mM HCl, 1 mM TCEP, 5% glycerol, yeast tRNA, BSA. EMSA: 100 mM KCl, 20% sucrose, 20 mM Hepes pH 7, 1 mM EDTA, 1 mM TCEP, 0.01% Triton X-100 (RNA buffer), yeast tRNA, heparin, BSA, 30 min room temperature, 6% native PAGE at 4 C. CoSMoS buffer not in material.; conditions: protein: recombinant; tags: fast SNAP tag at C terminus of Lsm8 via flexible linker; His-tag removed with TEV; copies: 1;1;1;1;1;1;1; label: fluorophore
T2 sequence 1: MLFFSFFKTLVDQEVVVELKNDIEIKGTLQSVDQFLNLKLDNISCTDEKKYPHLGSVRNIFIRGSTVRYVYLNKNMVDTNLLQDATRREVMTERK
T2 sequence 2: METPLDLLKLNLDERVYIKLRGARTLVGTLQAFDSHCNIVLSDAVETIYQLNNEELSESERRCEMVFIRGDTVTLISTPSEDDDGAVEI
T2 sequence 3: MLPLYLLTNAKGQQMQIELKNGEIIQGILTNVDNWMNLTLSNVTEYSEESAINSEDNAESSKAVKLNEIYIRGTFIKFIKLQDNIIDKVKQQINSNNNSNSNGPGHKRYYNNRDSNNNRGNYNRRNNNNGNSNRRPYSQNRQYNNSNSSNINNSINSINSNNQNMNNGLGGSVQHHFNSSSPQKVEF
T2 sequence 4: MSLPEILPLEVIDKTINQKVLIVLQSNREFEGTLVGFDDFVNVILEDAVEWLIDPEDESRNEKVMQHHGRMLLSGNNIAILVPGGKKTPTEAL
T2 sequence 5: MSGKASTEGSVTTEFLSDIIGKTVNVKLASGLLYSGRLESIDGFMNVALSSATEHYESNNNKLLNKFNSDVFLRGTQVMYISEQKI
T2 sequence 6: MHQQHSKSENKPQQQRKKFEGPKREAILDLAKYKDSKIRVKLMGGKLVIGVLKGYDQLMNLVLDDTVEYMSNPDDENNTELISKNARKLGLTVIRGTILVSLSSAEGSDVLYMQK
T2 sequence 7: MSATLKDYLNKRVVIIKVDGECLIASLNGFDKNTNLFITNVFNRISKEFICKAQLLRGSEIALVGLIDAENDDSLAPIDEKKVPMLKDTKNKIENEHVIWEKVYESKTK

Lsm2-8fSNAP (unlabeled) [3] = target: T2, Lsm2-8fSNAP (unlabeled); experiment: fluorescence polarization; Hill 1.12; FP: 2x RNA stock 2 nM mixed 1:1 with protein, 100 mM NaCl, 20 mM Bis-Tris pH 7.0, 10 mM HCl, 1 mM TCEP, 5% glycerol, yeast tRNA, BSA. EMSA: 100 mM KCl, 20% sucrose, 20 mM Hepes pH 7, 1 mM EDTA, 1 mM TCEP, 0.01% Triton X-100 (RNA buffer), yeast tRNA, heparin, BSA, 30 min room temperature, 6% native PAGE at 4 C. CoSMoS buffer not in material.; conditions: protein: recombinant; tags: fast SNAP tag at C terminus of Lsm8 via flexible linker; His-tag removed with TEV; copies: 1;1;1;1;1;1;1; label: fluorophore
Lsm2-8 heteroheptamer WT [4] = target: T1, Lsm2-8 heteroheptamer WT; experiment: fluorescence polarization; Hill 1.18; FP: 2x RNA stock 2 nM mixed 1:1 with protein, 100 mM NaCl, 20 mM Bis-Tris pH 7.0, 10 mM HCl, 1 mM TCEP, 5% glycerol, yeast tRNA, BSA. EMSA: 100 mM KCl, 20% sucrose, 20 mM Hepes pH 7, 1 mM EDTA, 1 mM TCEP, 0.01% Triton X-100 (RNA buffer), yeast tRNA, heparin, BSA, 30 min room temperature, 6% native PAGE at 4 C. CoSMoS buffer not in material.; conditions: protein: recombinant; tags: His-tag removed with TEV; copies: 1;1;1;1;1;1;1; label: fluorophore
Lsm2-8fSNAP (unlabeled) [5] = target: T2, Lsm2-8fSNAP (unlabeled); experiment: fluorescence polarization; Hill 1.35; FP: 2x RNA stock 2 nM mixed 1:1 with protein, 100 mM NaCl, 20 mM Bis-Tris pH 7.0, 10 mM HCl, 1 mM TCEP, 5% glycerol, yeast tRNA, BSA. EMSA: 100 mM KCl, 20% sucrose, 20 mM Hepes pH 7, 1 mM EDTA, 1 mM TCEP, 0.01% Triton X-100 (RNA buffer), yeast tRNA, heparin, BSA, 30 min room temperature, 6% native PAGE at 4 C. CoSMoS buffer not in material.; conditions: protein: recombinant; tags: fast SNAP tag at C terminus of Lsm8 via flexible linker; His-tag removed with TEV; copies: 1;1;1;1;1;1;1; label: fluorophore
Lsm2-8 heteroheptamer WT [6] = target: T1, Lsm2-8 heteroheptamer WT; experiment: fluorescence polarization; Hill 1.26; FP: 2x RNA stock 2 nM mixed 1:1 with protein, 100 mM NaCl, 20 mM Bis-Tris pH 7.0, 10 mM HCl, 1 mM TCEP, 5% glycerol, yeast tRNA, BSA. EMSA: 100 mM KCl, 20% sucrose, 20 mM Hepes pH 7, 1 mM EDTA, 1 mM TCEP, 0.01% Triton X-100 (RNA buffer), yeast tRNA, heparin, BSA, 30 min room temperature, 6% native PAGE at 4 C. CoSMoS buffer not in material.; conditions: protein: recombinant; tags: His-tag removed with TEV; copies: 1;1;1;1;1;1;1; label: fluorophore

AGAGAUUUAUUUCGUUUU (ssRNA, 3' phosphate) [U6 95-112-P]
Kd (Lsm2-8 heteroheptamer WT [1]): 10.3 ± 4.1 nM
Kd (Lsm2-8fSNAP (unlabeled) [2]): 12.8 ± 3.87 nM

AGAGAUUUAUUUCGUUUUU (ssRNA, 3' cis-diol (2',3'-OH)) [U6 95-113-OH]
Kd (Lsm2-8fSNAP (unlabeled) [3]): 6.7 ± 1.1 nM
Kd (Lsm2-8 heteroheptamer WT [4]): 6.75 ± 1.15 nM

AGAGAUUUAUUUCGUUUU (ssRNA, 3' cis-diol (2',3'-OH)) [U6 95-112-OH]
Kd (Lsm2-8fSNAP (unlabeled) [5]): 114 ± 16.8 nM
Kd (Lsm2-8 heteroheptamer WT [6]): 84.6 ± 16.8 nM
